According to IntAct's records for PubMed 16407301:

B1: Mitogen-activated protein kinase kinase kinase 3 (Homo sapiens), Q99759 (parent)
chain: MDEQEALNSIMNDLVALQMNRRHRMPGYETMKNKDTGHSNRQSDVRIKFEHNGERRIIAFSRPVKYEDVEHKVTTVFGQPLDLHYMNNELSILLKNQDDLDKAIDILDRSSSMKSLRILLLSQDRNHNSSSPHSGVSRQVRIKASQSAGDINTIYQPPEPRSRHLSVSSQNPGRSSPPPGYVPERQQHIARQGSYTSINSEGEFIPETSEQCMLDPLSSAENSLSGSCQSLDRSADSPSFRKSRMSRAQSFPDNRQEYSDRETQLYDKGVKGGTYPRRYHVSVHHKDYSDGRRTFPRIRRHQGNLFTLVPSSRSLSTNGENMGLAVQYLDPRGRLRSADSENALSVQERNVPTKSPSAPINWRRGKLLGQGAFGRVYLCYDVDTGRELASKQVQFDPDSPETSKEVSALECEIQLLKNLQHERIVQYYGCLRDRAEKTLTIFMEYMPGGSVKDQLKAYGALTESVTRKYTRQILEGMSYLHSNMIVHRDIKGANILRDSAGNVKLGDFGASKRLQTICMSGTGMRSVTGTPYWMSPEVISGEGYGRKADVWSLGCTVVEMLTEKPPWAEYEAMAAIFKIATQPTNPQLPSHISEHGRDFLRRIFVEARQRPSAEELLTHHFAQLMY

Variants of: B1
Settings: with mk03_human MAPK3, P27361
mk03_human MAPK3, P27361, sequence (P27361 whole entry): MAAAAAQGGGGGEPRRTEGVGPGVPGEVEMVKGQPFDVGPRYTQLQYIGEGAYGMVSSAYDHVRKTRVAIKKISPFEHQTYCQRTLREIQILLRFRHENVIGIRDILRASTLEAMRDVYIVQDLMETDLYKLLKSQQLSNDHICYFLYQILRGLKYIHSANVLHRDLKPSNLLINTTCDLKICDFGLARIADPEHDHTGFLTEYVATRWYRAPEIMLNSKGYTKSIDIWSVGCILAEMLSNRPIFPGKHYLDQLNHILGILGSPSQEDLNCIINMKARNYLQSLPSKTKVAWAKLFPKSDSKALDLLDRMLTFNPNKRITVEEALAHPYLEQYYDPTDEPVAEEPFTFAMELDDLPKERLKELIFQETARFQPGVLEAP

Variant | effect of a mutation on the interaction
S526A | disrupting interaction
K391M | disrupting interaction
T530A | disrupting interaction
